# Measurements taken from patent US20150216970A1 (Genentech, published 2015).
# T1: CD226-Flag (Flag-tagged human CD226, expressed in transfected COS 7 cells) (human, UniProt Q15762 19-336)
# T1 construct: whole, on cells; This is the construct of the co-immunoprecipitation; Cells were lysed before the pull-down; also called Flag-CD226; not shown: Flag tag
# T1 sequence (looked up): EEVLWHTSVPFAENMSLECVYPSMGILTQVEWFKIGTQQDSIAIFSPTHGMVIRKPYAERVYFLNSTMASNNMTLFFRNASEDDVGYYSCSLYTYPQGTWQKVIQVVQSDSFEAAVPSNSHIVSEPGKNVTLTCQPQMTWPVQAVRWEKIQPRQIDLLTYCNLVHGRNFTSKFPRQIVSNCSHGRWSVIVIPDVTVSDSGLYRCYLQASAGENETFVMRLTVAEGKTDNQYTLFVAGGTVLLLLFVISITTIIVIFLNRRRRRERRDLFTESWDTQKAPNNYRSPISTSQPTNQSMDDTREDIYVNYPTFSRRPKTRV
# T2: endogenous CD226 on primary human T cells (human, UniProt Q15762 19-336)
# T2 construct: whole, on cells
# T2 sequence (looked up): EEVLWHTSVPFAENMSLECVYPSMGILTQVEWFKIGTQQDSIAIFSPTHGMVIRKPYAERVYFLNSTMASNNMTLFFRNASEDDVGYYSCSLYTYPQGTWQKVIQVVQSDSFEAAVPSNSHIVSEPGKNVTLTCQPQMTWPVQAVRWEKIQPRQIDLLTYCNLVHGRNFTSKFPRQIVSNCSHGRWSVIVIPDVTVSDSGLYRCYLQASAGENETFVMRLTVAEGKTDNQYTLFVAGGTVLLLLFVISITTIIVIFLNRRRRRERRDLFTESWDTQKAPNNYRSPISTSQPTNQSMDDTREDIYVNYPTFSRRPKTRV
# B1: Flag-ST-CD226 (N-terminus SNAP-tagged human CD226, expressed on transfected COS-7 or CHO cells) (receptor, UniProt Q15762 19-336, looked up)
# chain: EEVLWHTSVPFAENMSLECVYPSMGILTQVEWFKIGTQQDSIAIFSPTHGMVIRKPYAERVYFLNSTMASNNMTLFFRNASEDDVGYYSCSLYTYPQGTWQKVIQVVQSDSFEAAVPSNSHIVSEPGKNVTLTCQPQMTWPVQAVRWEKIQPRQIDLLTYCNLVHGRNFTSKFPRQIVSNCSHGRWSVIVIPDVTVSDSGLYRCYLQASAGENETFVMRLTVAEGKTDNQYTLFVAGGTVLLLLFVISITTIIVIFLNRRRRRERRDLFTESWDTQKAPNNYRSPISTSQPTNQSMDDTREDIYVNYPTFSRRPKTRV
# modifications: SNAP tag labelled with benzyl-guanine SNAP-Lumi-4Tb (donor) and/or SNAP-A647 (acceptor)
# notes: whole, on cells; also called SNAP-tagged (ST) CD226; human ST-CD226; not shown: Flag tag; SNAP tag (ST)
# Columns and labels:
# [1] = biological target: T1, CD226-Flag (Flag-tagged human CD226, …); experiment: anti-FLAG and anti-HA immunoprecipitation and immunoblot from COS-7 cells transfected with Flag-CD226 and HA-TIGIT
# [2] = biological target: B1; experiment: TR-FRET on transfected COS-7 cells
# [3] = biological target: T2, endogenous CD226 on primary human T …; experiment: TR-FRET on primary human T cells with fluorophore-conjugated anti-TIGIT (clone 1F4) and anti-CD226
# Description: Primary human T cells were stimulated in vitro with anti-CD3 and anti-CD28 antibodies, sorted on the basis of TIGIT expression, rested, re-stimulated, and labeled with antibodies against endogenous TIGIT and CD226 that were conjugated to fluorophores compatible with TR-FRET. TIGIT-expressing T cells labeled with donor-conjugated anti-TIGIT and acceptor-conjugated anti-CD226 antibodies yielded a strong FRET signal (FIG. 30).
# Human anti-TIGIT (Genentech clone 1F4), anti-CD226 (Santa Cruz Biotechnology), and anti-HVEM (eBioscience) antibodies were conjugated fluorophores compatible with TR-FRET (Cisbio). Primary human T cells were MACS-enriched from blood, stimulated in vitro with plate bound anti-CD3 and anti-CD28 for 72 hours. TIGIT-expressing and non-expressing T cells (all expressing CD226) were then sorted, rested without stimulation for 72 hours, and re-stimulated for 48 hours. […] T cells were then seeded at 400,000 cells/well in a white 96-well plate (Costar) and TR-FRET was recorded at 665 nm for 400 μs after a 60 μs delay following laser excitation at 343 nm using a PHERAstar plate reader (BMG Labtech). FRET intensity was expressed as the signal at 665 nm from cells labeled with Ab-Lumi4-Tb+Ab-d2 minus the signal at 665 nm from the same batch of cells labeled with Ab-Lumi4-Tb alone. […]
# [4] = biological target: B1; experiment: TR-FRET ratio between Flag-ST-CD226 and HA-TIGIT Q56R
# [5] = biological target: the molecule itself; experiment: TR-FRET on COS-7 cells
# Protocol: Briefly, COS-7 cells were transfected with SNAP-tagged (ST) CD226 and HA-TIGIT using Lipofectamine 2000 (Life Technologies) and seeded in a white 96-well plate (Costar) at 100,000 cells per well. 24 hours later, cells were labeled with 100 nM of donor-conjugated benzyl-guanine SNAP-Lumi-4Tb (Cisbio) and 1 μM […] benzyl-guanine SNAP-A647 (New England Biolabs) diluted in DMEM 10% FCS for 1 h at 37° C., 5% CO2. After three washes in PBS, the FRET signal was recorded at 665 nm for 400 μs after a 60 μs delay following laser excitation at 343 nm using a Safire2 plate reader (Tecan). When the anti-TIGIT antibody was tested, the FRET signal was also recorded after a 15 min incubation. The FRET ratio was then calculated as the FRET intensity divided by the donor emission at 620 nm. The FRET intensity being: (signal at 665 nm from cells labeled with SNAP-donor and acceptor)—(signal at 665 nm from the same batch of transfected cells labeled with SNAP-donor only).
binder,measurement,setting,value
"HA-TIGIT (N-terminus HA-tagged human TIGIT, expressed on transfected COS-7 or CHO cells) (receptor, UniProt Q495A1 22-244, looked up, whole, on cells; It is treated here as one construct; also called TIGIT-HA; HA-TIGIT (WT); not shown: HA tag at the N-terminus) MMTGTIETTGNISAEKGGSIILQCHLSSTTAQVTQVNWEQQDQLLAICNADLGWHISPSFKDRVAPGPGLGLTLQSLTVNDTGEYFCIYHTYPDGTYTGRIFLEVLESSVAEHGARFQIPLLGAMAATLVVICTAVIVVVALTRKKKALRIHSVEGDLRRKSAGQEEWSPSAPSPPGSCVQAEAAPAGLCGEQRGEDCAELHDYFNVLSYRSLGNCSFFTETG",binding result,[1],binds
same,binding result,[2],binds
"endogenous TIGIT on primary human T cells (receptor, UniProt Q495A1 22-244, looked up, whole, on cells) MMTGTIETTGNISAEKGGSIILQCHLSSTTAQVTQVNWEQQDQLLAICNADLGWHISPSFKDRVAPGPGLGLTLQSLTVNDTGEYFCIYHTYPDGTYTGRIFLEVLESSVAEHGARFQIPLLGAMAATLVVICTAVIVVVALTRKKKALRIHSVEGDLRRKSAGQEEWSPSAPSPPGSCVQAEAAPAGLCGEQRGEDCAELHDYFNVLSYRSLGNCSFFTETG",binding result,[3],binds
"HA-TIGIT Q56R (receptor, UniProt Q495A1 22-244, looked up, whole, on cells; also called Q56R TIGIT; not shown: HA tag) MMTGTIETTGNISAEKGGSIILQCHLSSTTAQVTRVNWEQQDQLLAICNADLGWHISPSFKDRVAPGPGLGLTLQSLTVNDTGEYFCIYHTYPDGTYTGRIFLEVLESSVAEHGARFQIPLLGAMAATLVVICTAVIVVVALTRKKKALRIHSVEGDLRRKSAGQEEWSPSAPSPPGSCVQAEAAPAGLCGEQRGEDCAELHDYFNVLSYRSLGNCSFFTETG",binding result,[4],binds
B1,binding result,[5],binds
